# In the DeepSol protein solubility set:
# Test: soluble on expression in E. coli; label from the status in PepcDB or PDB records
row,Sequence,soluble on expression in E. coli
1,MGSDKIHHHHHHMKIAILTTNQAADDSRLVATARKKGHSANLLDLRQMSIALRPSVADIYYQNELITHHFDAIIPRLNVSYTDYGINLLQQFICSNTYVSESPEALRLGRDKLKCLQHLLSKGLPFPTTAIAYTPDFFNAIMQQLQLPLVVKLIESTEGTGVFLARTHKEVDNLCKTFSLAGVSYLIQEFIAEAAGHDVRAFVVGNRVVAAMQRDSQDDDFRANVSLGAHSSAVTLSADEQELVLKATQSIGVHVAGVDFVRSNRGPLLLEINVSPDFTGEQGIEAITLRDVAADIIDYTVQHAEAFYQGRSKY,not soluble
2,MGNGGILCALKTDSCSMLVISNNVHLPDAEIELTAIRAQGAGGQNVNKVSSAVHLRFDIPASSLPPFYKERLLALRDSRITSDGVIILKAQQYRTQEQNRADALERLTELILSAIKVEKKRRPTKPTLGSKKRRLETKAKRGSIKAGRGKVDFLEHHHHHH,soluble
3,MGHHHHHHSHMGEIESYCNKELGPLPTKAPTLSKNVLDLFSLKGKVASVTGSSGGIGWAVAEAYAQAGADVAIWYNSHPADEKAEHLQKTYGVHSKAYKCNISDPKSVEETISQQEKDFGTIDVFVANAGVTWTQGPEIDVDNYDSWNKIISVDLNGVYYCSHNIGKIFKKNGKGSLIITSSISGKIVNIPQLQAPYNTAKAACTHLAKSLAIEWAPFARVNTISPGYIDTDITDFASKDMKAKWWQLTPLGREGLTQELVGGYLYLASNASTFTTGSDVVIDGGYTCP,not soluble
4,MSFTPANRAYPYTRLRRNRRDDFSRRLVRENVLTVDDLILPVFVLDGVNQRESIPSMPGVERLSIDQLLIEAEEWVALGIPALALFPVTPVEKKSLDAAEAYNPEGIAQRATRALRERFPELGIITDVALDPFTTHGQCGILDDDGYVLNDVSIDVLVRQALSHAEAGAQVVAPSDMMDGRIGAIREALESAGHTNVRVMAYSAKYASAYYGPFRDAVGSASNLGKGNKATYQMDPANSDEALHEVAADLAEGADMVMVKPGMPYLDIVRRVKDEFRAPTFVYQVSGEYAMHMGAIQNGWLAESVILESLTAFKRAGADGILTYFAKQAAEQLRRGR,soluble
5,MAHHHHHHMGTLEAQTQGPGSMNLDNVTGGDNVPKEINVIIEISQNSCPVKYEFDKEKNLFCVDRFLPTSMYYPCNYGFIPHTCAGDGDPVDVLVASRFPVMSGAVIRARPVGVLVMHDESGEDVKILAVPTHKVDQYYNNIKDYSDFPVSFLNSISHFFTFYKKLEEDKFVSVEGWKDVTVAEKLILSALIK,soluble
6,MGSDKIHHHHHHMKFLNVIFKGHSISELIQEVIYVFIGYFFLMISYCTPRNKKKWVFGNKKIFKDNTKYLFIYMQEQHPEIQTIWITSSRRLVKRLRALSYSAYYKYSLKGLYHSLTAGVYVSTVNSNHINFFTSGRVFNVNLWHGISLKAMVDNKAVPADRSFLSRVCMPYVYEQYGLFFSTTPTIDDQYLRFFRFDPQVLYHGMSPRCSFMMMDHERLLRYIEEKEDPLMLDIIHTSRKYNKVFVYMPTWRINYGTHFMDYAFPDLYALNKAFSKINAILLLKLHPSMTYDAFKYKDLKHIYYIDANIDLYPILPFTDIMISDYSSIWYDYLLLPNKGVIHYDFDVDSYAKNEFGFFRDYKTFTPGVHASDFKQLLATIESSSSLQISEERRTWILDEMWGKGRSTNNEDLIKEICKRVEQVL,not soluble
7,MDTLQGMRVFARVVDSGSFTSAAQALDLSTAQVSRLISDLEAHLQTRLLHRTTRRLALTEAGERYLERCRGILEDIEVAEAEAAGAHIRPCGRLRVQSLMGMGQHHLVPMIARYGALFPDVVIELTLSQRNPDMLEEGQDVLITGERQLPDSEFVAQRLGSIHSVLCASPGYLQQHGVPRSVDDLERHVCLRLQDPAYPEGWIFADEQGERTVSPQNTFMVNVAEVMAQAAKADLGIALLPSYVAAAALRNGELLRVLPGHAMHQRTIYALYPSRRYLDAKIRTWVDLLQQELPQAFARDETTMQSSSYCAQ,not soluble
8,MGSDKIHHHHHHMTNWLPDLTGGAGPLYQRLADSVEAGIDQGVIGAGTKLPPQRDLAYDIGTTVGTVGRAYQLLRERGLVSGEVGRGTYVLGRRADGVKPEAPDVSVEGTRYVDAPQDKLRFDSTAAPDVGQGAVVADVLSRTAQDHPHEISSYTRDFPGRWYEAGARWLARNSFRPAADGIVPTLGTHAAVMAAIAALTTPGDYVAFEHLTYSQISRSAGLIGRRTALVASDDEGLDPADFERVCAQKHPRMIFLMPTAQNPTLTTLSAGRREAIARVAREYNVILIEDDLYGHLTDDPTPLLAEYAPERTIVAGGLSKSVAAGIRGGWLSCPPAYRHRIRVAHKMMTGGMPFLLAEVNTRLVLSGQASDIRKRCIAEISARIAIVRETLAGFAFKSHDKVPFVWLTLPDPWLSGTFKNACLEHGVLIDDEDEFKAGRSEQVFHGVRFGTSQPRQRGDVANGVAVIRRLLDEGRAGYDSFS,not soluble
9,MSLGSGHMIGVDVGETRVRVELFDLSLAELARTERPLAHKGRQAYDVGVIVGHIRDGVAEVLAAAGITAGELLGVGIGVPGIVERSGEGGAVVHGQTIGWDAVPLEHMLRLSGQLPEHVPYFIDNGAKTLGQAEMWFGAGRGAHNAVVVLFGSGVGACVVTDEVEHGRAVEWGHLTVRVQGRRCRCGALGCLEAYAGAEALLARWQEAGGQPPYDTDEETALTAMLAAAYPEDGRAPDPVAAAVLAETAEYLGAGLSDLINLFQPERILVGGWAGLQLGSRFLESVRTHALAYALRYPAGRVGIELGRLGPDAVTVGAAILPLADFFAHGGRRAEGHHHHHH,soluble
10,GMDDLSEFVDQVPLLDHHCHFLIDGKVPNRDDRLAQVSTEADKDYPLADTKNRLAYHGFLALAKEFALDANNPLAAMNDPGYATYNHRIFGHFHFKELLIDTGFVPDDPILDLDQTAELVGIPVKAIYRLETHAEDFMLEHDNFAAWWQAFSNDVKQAKAHGFVGFKSIAAYRVGLHLEPVNVIEAAAGFDTWKHSGEKRLTSKPLIDYMLYHVAPFIIAQDMPLQFHVGYGDADTDMYLGNPLLMRDYLKAFTKKGLKVVLLHCYPYHREAGYLASVFPNLYFDISLLDNLGPSGASRVFNEAVELAPYTRILFASDASTYPEMYGLAARQFKQALVAHFNQLPFVDLAQKKAWINAICWQTSAKLYHQERELRV,soluble
11,MNRLKSDQKTKLRQFVQWTQVTEAVSLNFLAKANWNIEYAMTLYFDNPNLFAGSTPQPSVDRSNIERLFNQYVDPKDKVGEKRMGPHGINRLLTDLGYEATDRRVLVLAWKFTAQTQCEFSLDEWVKGMTALQADTVQNLRQRIDSINSGLESDKAKFHELYLFAFNYAKSAACRNLDLETAICCWDVLFGQRSTIMTQWIDFLWAQENAAASRLAQNVGASNAKQFKSVWISRDTWNLFWDFILLSKPDLSDYDDEGAWPVLIDQFVDYCRENLNYPKPGNASNDQQMETPSYY,not soluble
12,MESKREYDYILPGRAESYWLATVPEPSYPALKGDIRVDIAIIGGGIAGLTTAYLLKEAGFSSIAVIEAGRILRGVTGHTTAKVTSQHSLIYDRLLSKFGKRQAQQYAESNQAALEKIASIVASKKIDCDFVRKPSYVYAGSEDSTNKIQNEAQTARNLGLPASFEENLPLPFKTYGAVRFNNQAQFHPVKYLNALAEQIHEGGCHIFENTRALKIEGEEPVTITTDKGTIRAHKVVQAMHYPIHDRPGLFFQRLYQSRSYVLGVRIRDPFPDGMFINAEEPVRSLRSQSTDKGELILVSGEGHRTGEEEHEISRYQNLEKWVRSVYSVDSIDYRWSSQDAISIDHIPYIGRQTSGNDSIFLATGFKKWGMTMGTVAAMIIKDMIREKYNPWEEVYDPSRFKPVESAKTLLSQAVEATKGFVGDRILPTHKEASQIGPEEGAIVKIEGERVAAYRDRNGVLYTLNPSCRHLGCIVSWNDAEKTWDCPCHGSRYKATGEVIHSPAVYGLSEKKIRGQDKNNIHTLEHHHHHH,soluble
13,MTDNARKEYLNQFFGSKRYLYQDNERVAHIHVVNGTYYFHGHIVPGWQGVKKTFDTAEELETYIKQQDLEYEEQKQLTLFLEHHHHHH,not soluble
14,MTAENLSLSPELLDAVRRISGTEHLLVALDFDGTLSPIVDRAEDARPLPRSAAALEALAQLPRTTTALISGRALDSLRLVASPPADTLLIGSHGAEVWLGEGSLGLELDEDQRLKLAAVREVLSEIVNIAPGTLLEDKPAGVVLHTRMADDDVADDAVEAAMRVLREHPGVYLKTGKRVLETSVVHASKGQAVEFLRQATGATAILFAGDDVTDEDALGRLMGDDVGIKVGLDFTQAQYRVEAPVHVAELLEALLRERRRVTTDA,soluble
15,MQQPINYIMNIMHLERDLKRLTSNWSSATGLSLNELRILVYVEQHPGIQIGDVANALNVAKASLAQNIGTLITQGWLKSQPIKQDRRLRVLTLTKAGQDRMKDVDAQLTKSLDTTPATQLADQLSALQL,not soluble
16,GIDPFTMAKKDGAIEVEGRVVEPLPNAMFRIELENGHKVLAHISGKMRQHYIRILPEDRVVVELSPYDLSRGRIVYRYK,soluble
17,MEPVTSSEREAELERELDLLRKELNIEQKMNSELKRLMIATLSDELQGQVEALTEDKVRLAHRVDEYMGKLMVEDEESDRLRIDRDVWKCKFLAQSIRCDELTSKNEYLLKTLVGIQQAVKTKNVTSDEISDFTQLDLQPLFHRSPCEERVRPITAKYTNLTIACCKNCMGRDIQLL,not soluble
18,MAGLFDKQADLYLDARPNYPSEWFSKLADLTDHHGLAWDAATGNGQAALAVAEHYESVVATDVSESQLKLATPHPKINYRHTPTSMTDDELVELIGGENSVDLITVAQGVHWFDLPRFYSVATRLLRKPGGIIAVWGYNDVIVSPEFDAVQYRLHATTLPFWKYPYIQHIFDSYEALPFPFENVGMGSEGEPLKLEMPKTTSFEGIIRMFKSWSAIVTAREKGVELLPESLVRELETAWGGSDLVRSVVYKAFMIAGKVRV,soluble
19,MAANSLPTNVASPVQTTTPTTDKRSIGFIDRQLGTNPAELPPLPYGYDALEKAIDAETMKLHHDKHHAAYVNNLNNALKKHPELQNSSVEALLRDLNSVPEDIRTTVRNNGGGHLNHTIFWQIMSPDGGGQPTGDIAQEINQTFGSFEEFKKQFNQAGGDRFGSGWVWLVRNPQGQLQVVSTPNQDNPIMEGSYPIMGNDVWEHAYYLRYQNRRPEYLNNWWNVVNWSEINRRTQASRQSNSHHHHHH,soluble
20,MNRRVVIVTAVHGPSAPFLPEAYASLCAQELPDGWEWRWVIQEDGRTQDVRPHVPDDPRVVFHQGRHGRQGGPGVARTMALAHADGAYVKVLDADDRLTPGALARDLAALEADPSIGWATSRVLDLLPDGSTAGFPGDPAHGPIERGEVLDFWRANGFRAQVHPATLLVRRDLLLAVGGWMALPASEDTGLLLALNCVSRGWFTEDVGLLYRKWEGQETGQASHVDPAERDARMTVVEARARALASFGWRLPEGTGDFDHLEHHHHHH,not soluble
21,MGSDKIHHHHHHMRKPKITVIGGGTGSPVILKSLREKDVEIAAIVTVADDGGSSGELRKNMQQLTPPGDLRNVLVAMSDMPKFYEKVFQYRFSEDAGAFAGHPLGNLIIAGLSEMQGSTYNAMQLLSKFFHTTGKIYPSSDHPLTLHAVFQDGTEVAGESHIVDHRGIIDNVYVTNALNDDTPLASRRVVQTILESDMIVLGPGSLFTSILPNIVIKEIGRALLETKAEIAYVCNIMTQRGETEHFTDSDHVEVLHRHLGRPFIDTVLVNIEKVPQEYMNSNRFDEYLVQVEHDFVGLCKQVSRVISSNFLRLENGGAFHDGDLIVDELMRIIQVKK,not soluble
